Measurements from US7670806B2, “ADP-ribosyl acceptor hydrolase 3 (ARH3) polypeptides and methods of use” (The United States of America as represented by the …, priority 2005, dated 2010).

Test: Hydrolysis of O-acetyl-[14C]ADP-ribose by ARH proteins / PARG (RP-HPLC)
Type: biochemical
Conditions: 1.5 pmol wild type or mutant human ARH3 or 20 mU PARG, 2 h at 30° C.; mouse ARH1, 2, 3
Description: FIG. 13A is a graph illustrating the results from incubation of 1.5 pmol of mouse ARH3 with or without 5 mM DTT and/or 10 mM MgCl2 as described in FIG. 11B with incubation for 1 h at 30° C. FIG. 13B is a graph illustrating the results from incubation of 1.5 pmol of wild type or mutant human (D77-78) ARH3 or 20 mU of PARG for 2 h at 30° C. *D77,78, assays incubated with 15 pmol of mutant human ARH3 (D77, D78).
FIG. 14A is a graph of the results from incubation with the indicated amount of mouse ARH1, 2, or 3 for 2 h at 30° C. FIG. 14B is a graph of the results from incubation with 230 pmol of mouse ARH1 at 30° C. for the indicated time.
Mouse ARH3 (2 pmol) and 2.5 μM O-acetyl-[^14C]ADP-ribose (5,000 cpm) in 200 μl of buffer containing 50 mM potassium phosphate (pH 7.0), 10 mM MgCl2 and 5 mM DTT were incubated for 2 h at 30° C., before separation of substrate and products using RP-HPLC as described below.
Hydrolysis of O-acetyl-[^14C]ADP-ribose catalyzed by ARH3. Assays containing the indicated concentration of O-acetyl-[^14C]-ADP-ribose (0.1 to 2 nmol, 1,000 to 20,000 cpm) and 1.5 pmol of ARH3 in 200 μl of buffer (50 mM KPO4 (pH 7.0), 10 mM MgCl2, 5 mM DTT) were incubated at 30° C. for 20 min. Substrate and products were separated using RP-HPLC. Amounts of product were corrected for ADP-ribose produced in the absence of ARH3 before calculation of hydrolysis rates.
Because O-acetyl-ADP-ribose was known to be hydrolyzed at alkaline pH Tanny and Moazed (2001), Proc Natl Acad Sci USA. 98(2):415-20, Epub Dec. 26, 2000), it was generated at pH 7.0 in the presence of [^14C-adenine] β-NAD, Sir2, and acetylated histone H3 peptide (FIG. 11A), and the products of Sir2 and ARH3 were analyzed using reverse-phase HPLC at the same pH (FIGS. 11A,B). The products of the ARH3-catalyzed reaction were also analyzed by high resolution-polyacrylamide gel electrophoresis (FIG. 11C). O-acetyl-[^14C]ADP-ribose hydrolase activity was time and ARH3 dependent (FIG. 12) and essentially completely dependent on Mg^2+ (FIG. 13A).
O-acetyl-ADP-ribose hydrolysis by ARH1 was time and ARH1 dependent (FIG. 14b).

B1: ARH3 (D77N/D78N): human ARH3 mutant with dual amino acid replacement D77N/D78N (protein)
chain: MAAAAMAAAAGGGAGAARSLSRFRGCLAGALLGDCVGSFYEAHDTVDLTSVLRHVQSLEPDPGTPGSERTEALYYTNNTAMARALVQSLLAKEAFDEVDMAHRFAQEYKKDPDRGYGAGVVTVFKKLLNPKCRDVFEPARAQFNGKGSYGNGGAMRVAGISLAYSSVQDVQKFARLSAQLTHASSLGYNGAILQALAVHLALQGESSSEHFLKQLLGHMEDLEGDAQSVLDARELGMEERPYSSRLKKIGELLDQASVTREEVVSELGNGIAAFESVPTAIYCFLRCMEPDPEIPSAFNSLQRTLIYSISLGGDTDTIATMAGAIAGAYYGMDQVPESWQQSCEGYEETDILAQSLHRVFQKS
O-acetyl-ADP-ribose hydrolysis (in words): apparently inactive
